Reference: paper PMC7710607

Target: ACSL1 (UniProt P41216)
Assay: co-IP of tagged proteins, blot
Conditions: reference: wild type TBK1; sites S172

In the case of “TBK1 (flag-human TBK1) (from UniProt Q9UHD2) S172A”, the “binding against the reference” value is reported as “stronger”.
